From patent publication US6440696 (NEW ENGLAND MEDICAL CENTER, dated 2002)

B1: HPV11 E6 protein (other)
chain: MESKDASTSATSIDQLCKTFNLSLHTLQIQCVFCRNALTTAEIYAYAYKNLKVVWRDNFPFAACACCLELQGKINQYRHFNYAAYAPTVEEETNEDILKVLIRCYLCHKPLCEIEKLKHILGKARFIKLNNQWKGRCLHCWTTCMEDLLP
B2: human lamin/GAL4 DNA binding domain fusion protein (pLam 5') (other)
chain: MKLLSSIEQACDICRLKKLKCSKEKPKCAKCLKNNWECRYSPKTKRSPLTRAHLTEVESRLERLEQLFLLIFPREDLDMILKMDSLQDIKALLTGLFVQDNVNKDAVTDRLASVETDMPLTLRQHRISATSSSEESSNKGQRQLTVSSEEVVSREVSGIKAAYEAELGDARKTLDSVAKERARLQLELSKVREEFKELKARNTKKEGDLIAAQARLKDLEALLNSKEAALSTALSEKRTLEGELHDLRGQVAKLEAALGEAKKQLQDEMLRRVDAENRLQTMKEELDFQKNIYSEELRETKRRHETRLVEID
notes: Control bait from Clontech; also called human lamin fused to Gal4 in pGBT9
B3: pGAD10 two-hybrid clone encoding the 378 carboxyl terminal amino acid residues of E6TP1 (other)
chain: SSRHSASPVVFTSARSSPKEELHPAAPSQLAPSFSSSSSSSSGPRSFYPRQGATSKYLIGWKKPEGTINSVGFMDTRKRHQSDGNEIAHTRLRASTRDLRASPKPTSKSTIEEDLKKLIDLESPTPESQKSFKFHALSSPQSPFPSTPTSRRALHRTLSDESIYNSQREHFFTSRASLLDQALPNDVLFSSTYPSLPKSLPLRRPSYTLGMKSLHGEFSASDSSLTDIQETRRQPMPDPGLMPLPDTAADLDWSNLVDAAKAYEVQRASFFAASDENHRPLSAASNSDQLEDQALAQMKPYSSSKDSSPTLASKVDQLEGMLKMLREDLKKEKEDKAHLQAEVQHLREDNLRLQEESQNASDKLKKFTEWVFNTIDMS
notes: also called one distinct strongly positive clone; longer yeast two-hybrid cDNA clone
B4: pGBT9-E6 bait (GAL4 fused to HPV16 E6 residues 2-158) (other)
chain: MKLLSSIEQACDICRLKKLKCSKEKPKCAKCLKNNWECRYSPKTKRSPLTRAHLTEVESRLERLEQLFLLIFPREDLDMILKMDSLQDIKALLTGLFVQDNVNKDAVTDRLASVETDMPLTLRQHRISATSSSEESSNKGQRQLTVSHQKRTAMFQDPQERPRKLPQLCTELQTTIHDIILECVYCKQQLLRREVYDFAFRDLCIVYRDGNPYAVCDKCLKFYSKISEYRHYCYSLYGTTLEQQYNKPLCDLLIRCINCQKPLCPEEKQRHLDKKQRFHNIRGRWTGRCMSCCRSSRTRRETQL
notes: also called pGB9-E6
B5: murine p53/GAL4 DNA binding domain fusion protein (pVA3) (other)
chain: MKLLSSIEQACDICRLKKLKCSKEKPKCAKCLKNNWECRYSPKTKRSPLTRAHLTEVESRLERLEQLFLLIFPREDLDMILKMDSLQDIKALLTGLFVQDNVNKDAVTDRLASVETDMPLTLRQHRISATSSSEESSNKGQRQLTVSPVTETPGPVAPAPATPWPLSSFVPSQKTYQGNYGFHLGFLQSGTAKSVMCTYSPPLNKLFCQLAKTCPVQLWVSATPPAGSRVRAMAIYKKSQHMTEVVRRCPHHERCSDGDGLAPPQHLIRVEGNLYPEYLEDRQTFRHSVVVPYEPPEAGSEYTTIHYKYMCNSSCMGGMNRRPILTIITLEDSSGNLLGRDSFEVRVCACPGRDRRTEEENFRKKEVLCPELPPGSAKRALPTCTSASPPQKKKPLDGEYFTLKIRGRKRFEMFRELNEALELKDAHATEESGDSRAHSSYLKTKKGQSTSRHKKTMVKKVGPDSD
notes: Control bait from Clontech; also called murine p53 fused to Gal4 in pGBT9
B6: HPV16 E6 protein (other)
chain: MFQDPQERPRKLPQLCTELQTTIHDIILECVYCKQQLLRREVYDFAFRDLCIVYRDGNPYAVCDKCLKFYSKISEYRHYCYSLYGTTLEQQYNKPLCDLLIRCINCQKPLCPEEKQRHLDKKQRFHNIRGRWTGRCMSCCRSSRTRRETQL
notes: also called high-risk HPV16 E6; wild-type E6
B7: pGAD10 two-hybrid clone encoding the 194 carboxyl terminal amino acid residues of E6TP1 (other)
chain: NDVLFSSTYPSLPKSLPLRRPSYTLGMKSLHGEFSASDSSLTDIQETRRQPMPDPGLMPLPDTAADLDWSNLVDAAKAYEVQRASFFAASDENHRPLSAASNSDQLEDQALAQMKPYSSSKDSSPTLASKVDQLEGMLKMLREDLKKEKEDKAHLQAEVQHLREDNLRLQEESQNASDKLKKFTEWVFNTIDMS
notes: also called set of eleven identical strongly positive clones
B8: HPV6 E6 protein (other)
chain: MESANASTSATTIDQLCKTFNLSMHTLQINCVFCKNALTTAEIYSYAYKHLKVLFRGGYPYAACACCLEFHGKINQYRHFDYAGYATTVEEETKQDILDVLIRCYLCHKPLCEVEKVKHILTKARFIKLNCTWKGRCLHCWTTCMEDMLP
notes: also called low-risk HPV6 E6

Assays:
GST = biological target: T1, GST (UniProt P08515 1-218 = GST); experiment: GST pull-down of in vitro translated 35S-labelled E6
T1 construct: Negative control; also called GST alone
T1 sequence (P08515 whole entry): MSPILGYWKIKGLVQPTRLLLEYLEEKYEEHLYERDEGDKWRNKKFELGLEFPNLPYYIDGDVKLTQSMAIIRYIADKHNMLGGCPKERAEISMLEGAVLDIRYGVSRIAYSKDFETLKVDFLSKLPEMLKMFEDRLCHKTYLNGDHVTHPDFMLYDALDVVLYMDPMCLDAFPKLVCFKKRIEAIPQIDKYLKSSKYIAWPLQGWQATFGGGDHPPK

[1] = biological target: B3; experiment: yeast two-hybrid, control bait
[2] = biological target: T2, pGAD10 two-hybrid clone encoding the 476 carboxyl-terminal amino acids of E6-AP (human, UniProt Q05086 400-875); experiment: yeast two-hybrid, control bait
T2 construct: domain: 476 carboxyl-terminal amino acids; also called one weakly positive clone
T2 sequence: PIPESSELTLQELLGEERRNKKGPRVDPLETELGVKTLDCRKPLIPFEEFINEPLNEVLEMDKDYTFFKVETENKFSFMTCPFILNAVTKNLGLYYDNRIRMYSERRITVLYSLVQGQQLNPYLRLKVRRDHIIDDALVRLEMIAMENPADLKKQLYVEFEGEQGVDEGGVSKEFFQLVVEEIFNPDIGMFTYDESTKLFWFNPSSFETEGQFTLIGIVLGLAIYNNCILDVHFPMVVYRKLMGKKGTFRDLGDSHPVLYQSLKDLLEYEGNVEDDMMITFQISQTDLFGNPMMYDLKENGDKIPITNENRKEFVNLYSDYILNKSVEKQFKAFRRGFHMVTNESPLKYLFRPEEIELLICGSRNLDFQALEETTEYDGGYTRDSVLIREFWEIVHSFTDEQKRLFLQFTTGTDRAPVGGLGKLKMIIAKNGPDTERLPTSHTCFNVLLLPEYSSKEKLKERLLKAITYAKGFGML

[3] = biological target: B5; experiment: yeast two-hybrid, control bait
[4] = biological target: B3; experiment: yeast two-hybrid: growth on Trp-, Leu-, His- medium and beta-gal activity
[5] = biological target: B4; experiment: as above
[6] = biological target: B2; experiment: yeast two-hybrid, control bait

Binder: B1
- binding result (GST): no binding (tested: 1 µg GST fusion protein)

Binder: B2
- binding result [1]: no binding
- binding result [2]: no binding

Binder: B3
- binding result [3]: no binding

Binder: B4
- binding result [4]: binds

Binder: B5
- binding result [2]: no binding

Binder: B6
- binding result (GST): no binding (tested: 1 µg GST fusion protein)

Binder: B7
- binding result [5]: binds
- binding result [6]: no binding
- binding result [3]: no binding

Binder: B8
- binding result (GST): no binding (tested: 1 µg GST fusion protein)
